Measured values as given in patent US20260232827A1, “ANTIBODY-DRUG CONJUGATES TARGETING NAPI2B AND METHODS OF USE” (Zymeworks BC Inc., priority 2023, published 2026).
Values belong to the substance of their own block, whether it stands above or below them.

Key:
[1] = molecular target: Fcγ receptor (FcγR) on the surface of immune effector cells; test: cell-based or functional assay
[2] = molecular target: Construct 6 (human NaPi2b del 317-333) (human) (UniProt O95436); test: flow cytometry, transfected HEK293-6e cells, antibody 50 nM (footnote b)
[3] = molecular target: Construct 3 (chimeric human NaPi2b, swap in NaPi2c in 304-321) (human); test: as above
[4] = molecular target: Construct 5 (chimeric human NaPi2b, swap in NaPi2a in 304-348) (human); test: as above
[5] = molecular target: Construct 2 (chimeric human NaPi2b, swap in NaPi2c in 280-301) (human); test: as above
[6] = molecular target: Full length human NaPi2b (sodium-dependent phosphate transporter 2B, SLC34A2) (human) (UniProt O95436); test: as above
[7] = molecular target: Construct 1 (chimeric human NaPi2b, swap in NaPi2c in 239-259) (human); test: as above
[8] = molecular target: Construct 4 (chimeric human NaPi2b, swap in NaPi2c in 341-358) (human); test: as above
[9] = molecular target: Construct 7 (human NaPi2b del 317-326) (human) (UniProt O95436); test: as above
[10] = molecular target: Construct 6 (human NaPi2b del 317-333) (human) (UniProt O95436); test: flow cytometry, transfected HEK293-6e cells, antibody 5 nM (footnote b)
[11] = molecular target: Construct 3 (chimeric human NaPi2b, swap in NaPi2c in 304-321) (human); test: as above
[12] = molecular target: Construct 5 (chimeric human NaPi2b, swap in NaPi2a in 304-348) (human); test: as above
[13] = molecular target: Construct 2 (chimeric human NaPi2b, swap in NaPi2c in 280-301) (human); test: as above
[14] = molecular target: Full length human NaPi2b (sodium-dependent phosphate transporter 2B, SLC34A2) (human) (UniProt O95436); test: as above
[15] = molecular target: Construct 1 (chimeric human NaPi2b, swap in NaPi2c in 239-259) (human); test: as above
[16] = molecular target: Construct 4 (chimeric human NaPi2b, swap in NaPi2c in 341-358) (human); test: as above
[17] = molecular target: Construct 7 (human NaPi2b del 317-326) (human) (UniProt O95436); test: as above
[18] = molecular target: Construct 6 (human NaPi2b del 317-333) (human) (UniProt O95436); test: flow cytometry, transfected HEK293-6e cells, antibody 0.5 nM (footnote b)
[19] = molecular target: Construct 3 (chimeric human NaPi2b, swap in NaPi2c in 304-321) (human); test: as above
[20] = molecular target: Construct 5 (chimeric human NaPi2b, swap in NaPi2a in 304-348) (human); test: as above
[21] = molecular target: Construct 2 (chimeric human NaPi2b, swap in NaPi2c in 280-301) (human); test: as above
[22] = molecular target: Full length human NaPi2b (sodium-dependent phosphate transporter 2B, SLC34A2) (human) (UniProt O95436); test: as above
[23] = molecular target: Construct 1 (chimeric human NaPi2b, swap in NaPi2c in 239-259) (human); test: as above
[24] = molecular target: Construct 4 (chimeric human NaPi2b, swap in NaPi2c in 341-358) (human); test: as above
[25] = molecular target: Construct 7 (human NaPi2b del 317-326) (human) (UniProt O95436); test: as above
[26] = molecular target: human sodium-dependent phosphate transporter 2B (NaPi2b) (human) (UniProt O95436); test: competition flow cytometry, human NaPi2b on HEK293-6e; row antibody unlabeled 100 ug/mL; competitor: labeled v16955 (negative control) 1 ug/mL
[27] = molecular target: human sodium-dependent phosphate transporter 2B (NaPi2b) (human) (UniProt O95436); test: competition flow cytometry, human NaPi2b on HEK293-6e; row antibody unlabeled 100 ug/mL; competitor: labeled v18992 (MX35) 1 ug/mL
[28] = molecular target: human sodium-dependent phosphate transporter 2B (NaPi2b) (human) (UniProt O95436); test: competition flow cytometry, human NaPi2b on HEK293-6e; row antibody unlabeled 100 ug/mL; competitor: labeled v18993 (lifastuzumab) 1 ug/mL
[29] = molecular target: human sodium-dependent phosphate transporter 2B (NaPi2b) (human) (UniProt O95436); test: competition flow cytometry, human NaPi2b on HEK293-6e; row antibody unlabeled 100 ug/mL; competitor: labeled v23855 1 ug/mL

Sequence of Construct 4 (chimeric human NaPi2b, swap in NaPi2c in 341-358) (human) (O95436 other isoform, or with tags, fused parts or gaps mutant): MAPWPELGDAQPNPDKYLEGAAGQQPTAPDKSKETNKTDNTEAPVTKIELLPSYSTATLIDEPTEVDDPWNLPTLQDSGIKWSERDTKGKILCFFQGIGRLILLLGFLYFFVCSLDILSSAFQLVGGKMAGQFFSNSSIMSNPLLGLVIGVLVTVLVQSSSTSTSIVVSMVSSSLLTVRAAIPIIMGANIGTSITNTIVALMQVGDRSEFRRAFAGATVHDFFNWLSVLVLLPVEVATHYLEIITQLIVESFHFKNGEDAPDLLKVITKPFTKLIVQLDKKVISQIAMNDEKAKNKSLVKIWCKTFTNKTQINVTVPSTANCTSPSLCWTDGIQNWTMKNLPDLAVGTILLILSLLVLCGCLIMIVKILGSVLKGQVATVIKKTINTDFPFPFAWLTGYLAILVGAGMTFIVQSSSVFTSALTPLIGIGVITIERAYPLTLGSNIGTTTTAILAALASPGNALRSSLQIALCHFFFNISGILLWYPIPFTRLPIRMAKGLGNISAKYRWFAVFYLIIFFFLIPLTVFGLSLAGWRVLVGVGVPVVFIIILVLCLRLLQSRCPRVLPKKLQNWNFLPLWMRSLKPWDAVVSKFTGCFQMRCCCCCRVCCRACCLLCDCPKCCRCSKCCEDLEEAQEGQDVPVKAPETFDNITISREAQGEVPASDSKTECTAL
Sequence of Construct 3 (chimeric human NaPi2b, swap in NaPi2c in 304-321) (human) (O95436 other isoform, or with tags, fused parts or gaps mutant): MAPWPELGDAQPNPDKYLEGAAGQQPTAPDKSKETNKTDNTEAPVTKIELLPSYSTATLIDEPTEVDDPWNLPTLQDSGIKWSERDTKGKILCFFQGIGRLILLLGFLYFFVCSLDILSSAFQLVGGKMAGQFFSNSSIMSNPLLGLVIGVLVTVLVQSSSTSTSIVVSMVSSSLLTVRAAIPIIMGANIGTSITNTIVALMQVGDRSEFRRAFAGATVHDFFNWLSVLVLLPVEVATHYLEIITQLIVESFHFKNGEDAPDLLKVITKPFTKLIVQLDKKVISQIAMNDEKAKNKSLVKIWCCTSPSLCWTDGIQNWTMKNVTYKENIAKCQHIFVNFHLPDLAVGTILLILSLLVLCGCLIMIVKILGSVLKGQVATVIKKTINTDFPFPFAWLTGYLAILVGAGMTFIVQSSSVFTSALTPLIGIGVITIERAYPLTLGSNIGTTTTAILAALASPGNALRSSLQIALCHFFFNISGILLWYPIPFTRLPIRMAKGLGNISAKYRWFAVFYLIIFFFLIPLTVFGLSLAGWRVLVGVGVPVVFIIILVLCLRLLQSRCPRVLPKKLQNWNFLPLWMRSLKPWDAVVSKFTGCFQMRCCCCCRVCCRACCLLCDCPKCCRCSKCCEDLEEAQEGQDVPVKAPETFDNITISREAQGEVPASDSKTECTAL
Sequence of Construct 2 (chimeric human NaPi2b, swap in NaPi2c in 280-301) (human) (O95436 other isoform, or with tags, fused parts or gaps mutant): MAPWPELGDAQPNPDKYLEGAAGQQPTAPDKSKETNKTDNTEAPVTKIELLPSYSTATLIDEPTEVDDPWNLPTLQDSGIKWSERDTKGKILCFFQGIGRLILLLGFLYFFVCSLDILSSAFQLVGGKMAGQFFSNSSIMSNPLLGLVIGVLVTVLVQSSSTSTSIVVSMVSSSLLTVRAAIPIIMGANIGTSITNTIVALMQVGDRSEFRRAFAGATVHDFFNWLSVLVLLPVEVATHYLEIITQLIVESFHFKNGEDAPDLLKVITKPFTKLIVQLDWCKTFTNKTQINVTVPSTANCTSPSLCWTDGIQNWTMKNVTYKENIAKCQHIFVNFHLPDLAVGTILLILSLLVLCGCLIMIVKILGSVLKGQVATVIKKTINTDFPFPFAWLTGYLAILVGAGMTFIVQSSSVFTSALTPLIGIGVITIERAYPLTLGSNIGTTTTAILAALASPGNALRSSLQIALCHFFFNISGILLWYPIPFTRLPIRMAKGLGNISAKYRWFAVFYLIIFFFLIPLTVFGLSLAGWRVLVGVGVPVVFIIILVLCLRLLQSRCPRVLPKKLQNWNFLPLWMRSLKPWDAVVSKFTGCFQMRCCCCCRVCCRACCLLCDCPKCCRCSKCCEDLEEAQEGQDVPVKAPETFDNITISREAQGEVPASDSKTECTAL
Sequence of Construct 1 (chimeric human NaPi2b, swap in NaPi2c in 239-259) (human) (O95436 other isoform, or with tags, fused parts or gaps mutant): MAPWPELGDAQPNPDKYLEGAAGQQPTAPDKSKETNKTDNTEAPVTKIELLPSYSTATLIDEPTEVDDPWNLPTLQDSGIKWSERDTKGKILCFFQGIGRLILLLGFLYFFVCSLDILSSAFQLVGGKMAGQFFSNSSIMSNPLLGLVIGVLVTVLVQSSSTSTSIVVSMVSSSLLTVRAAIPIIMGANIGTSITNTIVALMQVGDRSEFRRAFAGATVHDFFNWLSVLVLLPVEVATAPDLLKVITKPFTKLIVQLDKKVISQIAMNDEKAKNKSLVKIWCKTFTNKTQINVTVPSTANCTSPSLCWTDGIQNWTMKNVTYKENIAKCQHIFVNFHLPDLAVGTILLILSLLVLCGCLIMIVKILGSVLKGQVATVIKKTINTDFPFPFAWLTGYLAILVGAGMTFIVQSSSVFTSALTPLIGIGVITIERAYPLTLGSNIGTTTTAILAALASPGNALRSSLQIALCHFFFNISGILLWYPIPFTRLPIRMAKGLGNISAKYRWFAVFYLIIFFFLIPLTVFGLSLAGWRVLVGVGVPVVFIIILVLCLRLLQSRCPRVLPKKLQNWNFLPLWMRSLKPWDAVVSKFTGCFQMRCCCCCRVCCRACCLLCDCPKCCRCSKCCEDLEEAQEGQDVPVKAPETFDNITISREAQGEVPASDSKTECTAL
Sequence of Construct 7 (human NaPi2b del 317-326) (human) (O95436 other isoform, or with tags, fused parts or gaps): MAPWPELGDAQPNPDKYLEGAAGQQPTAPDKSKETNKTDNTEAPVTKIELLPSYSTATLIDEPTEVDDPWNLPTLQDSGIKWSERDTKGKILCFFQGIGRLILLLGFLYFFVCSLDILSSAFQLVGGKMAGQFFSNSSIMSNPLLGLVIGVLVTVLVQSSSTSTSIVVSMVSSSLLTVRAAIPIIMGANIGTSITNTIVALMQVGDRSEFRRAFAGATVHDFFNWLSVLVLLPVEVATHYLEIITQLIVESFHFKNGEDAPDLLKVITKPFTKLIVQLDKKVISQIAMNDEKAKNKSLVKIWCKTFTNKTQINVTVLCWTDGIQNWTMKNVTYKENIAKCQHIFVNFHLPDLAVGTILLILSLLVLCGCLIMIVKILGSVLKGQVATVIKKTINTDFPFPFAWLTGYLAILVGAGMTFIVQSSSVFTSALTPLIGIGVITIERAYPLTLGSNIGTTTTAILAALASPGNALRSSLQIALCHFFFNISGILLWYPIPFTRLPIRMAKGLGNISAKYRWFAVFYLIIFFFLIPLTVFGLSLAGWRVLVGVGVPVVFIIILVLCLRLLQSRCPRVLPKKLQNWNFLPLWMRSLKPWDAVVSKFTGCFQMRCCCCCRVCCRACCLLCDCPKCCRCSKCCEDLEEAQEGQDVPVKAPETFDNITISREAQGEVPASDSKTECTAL
Sequence of Full length human NaPi2b (sodium-dependent phosphate transporter 2B, SLC34A2) (human) (O95436 whole entry): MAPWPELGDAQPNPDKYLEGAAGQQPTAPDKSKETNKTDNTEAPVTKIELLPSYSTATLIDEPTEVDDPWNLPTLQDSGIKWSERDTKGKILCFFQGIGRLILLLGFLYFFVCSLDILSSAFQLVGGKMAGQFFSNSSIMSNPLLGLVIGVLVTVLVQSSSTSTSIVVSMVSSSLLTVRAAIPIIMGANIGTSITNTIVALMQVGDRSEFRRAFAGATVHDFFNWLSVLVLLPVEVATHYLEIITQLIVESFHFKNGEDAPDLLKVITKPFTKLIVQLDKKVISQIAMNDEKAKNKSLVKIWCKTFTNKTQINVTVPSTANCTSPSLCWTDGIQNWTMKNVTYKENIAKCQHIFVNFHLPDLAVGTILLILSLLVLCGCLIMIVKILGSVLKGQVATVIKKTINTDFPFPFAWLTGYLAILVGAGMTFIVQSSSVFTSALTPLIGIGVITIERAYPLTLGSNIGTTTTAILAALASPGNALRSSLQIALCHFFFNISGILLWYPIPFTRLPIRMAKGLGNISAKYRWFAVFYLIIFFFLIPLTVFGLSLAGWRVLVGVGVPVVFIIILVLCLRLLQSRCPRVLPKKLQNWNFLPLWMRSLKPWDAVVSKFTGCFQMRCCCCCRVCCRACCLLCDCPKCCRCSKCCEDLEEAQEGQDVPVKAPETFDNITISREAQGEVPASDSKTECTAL
Sequence of human sodium-dependent phosphate transporter 2B (NaPi2b) (human) (O95436 whole entry): as above
Sequence of Construct 6 (human NaPi2b del 317-333) (human) (O95436 other isoform, or with tags, fused parts or gaps): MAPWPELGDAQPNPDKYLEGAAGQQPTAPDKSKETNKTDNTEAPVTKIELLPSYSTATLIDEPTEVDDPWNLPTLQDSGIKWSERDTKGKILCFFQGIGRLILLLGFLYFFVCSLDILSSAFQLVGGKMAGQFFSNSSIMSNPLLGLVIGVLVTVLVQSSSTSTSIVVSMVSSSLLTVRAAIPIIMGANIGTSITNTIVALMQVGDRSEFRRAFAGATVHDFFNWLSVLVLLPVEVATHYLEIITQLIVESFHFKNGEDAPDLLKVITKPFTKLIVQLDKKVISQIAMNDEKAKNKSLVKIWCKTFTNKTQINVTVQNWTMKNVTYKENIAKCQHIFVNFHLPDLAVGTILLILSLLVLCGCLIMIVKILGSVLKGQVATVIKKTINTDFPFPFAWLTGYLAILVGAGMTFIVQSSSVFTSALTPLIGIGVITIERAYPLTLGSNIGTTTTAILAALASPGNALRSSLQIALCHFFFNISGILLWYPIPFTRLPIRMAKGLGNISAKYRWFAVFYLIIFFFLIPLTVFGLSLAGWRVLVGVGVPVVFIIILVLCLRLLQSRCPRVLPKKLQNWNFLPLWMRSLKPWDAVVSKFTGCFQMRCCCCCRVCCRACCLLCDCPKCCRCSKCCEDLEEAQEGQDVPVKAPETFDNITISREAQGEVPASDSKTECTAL

% ADCC at 0.0192 nM (25 PBMCs:1 IGROV-1, 4 h) [1]: 5.96%
% ADCC at 0.48 nM (25 PBMCs:1 IGROV-1, 4 h) [1]: 14%
% ADCC at 12 nM (25 PBMCs:1 IGROV-1, 4 h) [1]: 14.4%
Substance: Lifastuzumab (v18993, wild-type Fc) (antibody)

Background-Subtracted AF647 Mean Fluorescence Intensity [2]: 291 MFI
Background-Subtracted AF647 Mean Fluorescence Intensity [3]: 375 MFI
Background-Subtracted AF647 Mean Fluorescence Intensity [4]: 339 MFI
Background-Subtracted AF647 Mean Fluorescence Intensity [5]: 230 MFI
Background-Subtracted AF647 Mean Fluorescence Intensity [6]: 107 MFI
Background-Subtracted AF647 Mean Fluorescence Intensity [7]: 616 MFI
Background-Subtracted AF647 Mean Fluorescence Intensity [8]: 511 MFI
Background-Subtracted AF647 Mean Fluorescence Intensity [9]: 123 MFI
Background-Subtracted AF647 Mean Fluorescence Intensity [10]: 283 MFI
Background-Subtracted AF647 Mean Fluorescence Intensity [11]: 411 MFI
Background-Subtracted AF647 Mean Fluorescence Intensity [12]: 546 MFI
Background-Subtracted AF647 Mean Fluorescence Intensity [13]: 222 MFI
Background-Subtracted AF647 Mean Fluorescence Intensity [14]: 97 MFI
Background-Subtracted AF647 Mean Fluorescence Intensity [15]: 859 MFI
Background-Subtracted AF647 Mean Fluorescence Intensity [16]: 250 MFI
Background-Subtracted AF647 Mean Fluorescence Intensity [17]: 1 MFI
Background-Subtracted AF647 Mean Fluorescence Intensity [18]: 666 MFI
Background-Subtracted AF647 Mean Fluorescence Intensity [19]: 40 MFI
Background-Subtracted AF647 Mean Fluorescence Intensity [20]: 119 MFI
Background-Subtracted AF647 Mean Fluorescence Intensity [21]: 70 MFI
Background-Subtracted AF647 Mean Fluorescence Intensity [22]: 596 MFI
Background-Subtracted AF647 Mean Fluorescence Intensity [23]: 99 MFI
Background-Subtracted AF647 Mean Fluorescence Intensity [24]: 146 MFI
Background-Subtracted AF647 Mean Fluorescence Intensity [25]: 369 MFI
Substance: reference anti-NaPi2a antibody (polyclonal rabbit anti-human SLC34A1; Atlas Biotechnologies Inc; Cat. No. HPA051255)

% Inhibition vs. irrelevant mAb [26]: 0%
% Inhibition vs. irrelevant mAb [27]: 0%
% Inhibition vs. irrelevant mAb [28]: 0%
% Inhibition vs. irrelevant mAb [29]: 0%
Substance: v16955 (Palivizumab, anti-RSV, negative control of Example 9) (antibody)

ADCC EC50 (nM) (25 PBMCs:1 IGROV-1, 4-hour incubation) [1]: 0.035 nM
ADCP EC50 (nM) (2 Macs:1 IGROV-1, 2-hour incubation) [1]: 0.043 nM
Substance: v18992 (Fc wild-type MX-35) (antibody)
